{
  "source": "paper PMC6053351",
  "about": "“Structural and biochemical insights into human zinc finger protein AEBP2 reveals interactions with RBBP4” (Protein & Cell, 2017)",
  "binders": {"B1": {"name": "AEBP2 ZF-RRK (ZF1–3 and the RRK-rich motif, residues Asn258–Asp396) (domain or fragment, human, UniProt Q6ZN18-1 258-396, looked up)", "chain": "NIAYNCCWDQCQACFNSSPDLADHIRSIHVDGQRGGVFVCLWKGCKVYNTPSTSQSWLQRHMLTHSGDKPFKCVVGGCNASFASQGGLARHVPTHFSQQNSSKVSSQPKAKEESPSKAGMNKRRKLKNKRRRSLPRPHD", "notes": "AEBP2, human, residues Asn258–Asp396 (numbering as for Uniprot entry Q6ZN18-1); also called apo AEBP2 ZF-RRK; source: recombinant protein"}, "B2": {"name": "AEBP2_(379–390) peptide with mutations Arg380Ala/Lys382Ala (peptide, UniProt Q6ZN18-1 379-390, looked up)", "peptide": "KARALKNKRRRS", "notes": "AEBP2, human, residues Lys379–Ser390 of Uniprot entry Q6ZN18-1 with Arg380Ala/Lys382Ala"}, "B3": {"name": "AEBP2_(379–390) peptide (RRK-rich motif, residues Lys379–Ser390) (peptide, UniProt Q6ZN18-1 379-390, looked up)", "peptide": "KRRKLKNKRRRS", "notes": "AEBP2, human, RRK-rich motif, residues Lys379–Ser390 of Uniprot entry Q6ZN18-1; source: synthetic peptide"}},
  "details_in_all_cases": "both partners purified",
  "key": {"[1]": {"molecular_target": "T1, RBBP4, full-length, wild type (UniProt Q09028 1-425)", "T1 construct": "RBBP4 (also known as RbAp48), full-length; also called RbAp48; apo RBBP4", "assay": "SEC; gel filtration on a Superdex 200 10/300 GL column; RBBP4 mixed with excess AEBP2 ZF-RRK, against apo RBBP4 and apo ZF-RRK; SDS-PAGE of the peaks"}, "[2]": {"molecular_target": "T1, RBBP4, full-length, wild type", "assay": "ITC; AEBP2_(379–390) peptide titrated into RBBP4; one-site binding model, Origin 7"}, "RBBP4 Glu231Ala": {"molecular_target": "T2, RBBP4 Glu231Ala (UniProt Q09028 1-425, Glu231Ala)", "T2 construct": "RBBP4 with the mutation Glu231Ala; parent is the wild-type RBBP4 of m1; also called RBBP4 E231A", "T2 sequence (Q09028 whole entry E231A)": "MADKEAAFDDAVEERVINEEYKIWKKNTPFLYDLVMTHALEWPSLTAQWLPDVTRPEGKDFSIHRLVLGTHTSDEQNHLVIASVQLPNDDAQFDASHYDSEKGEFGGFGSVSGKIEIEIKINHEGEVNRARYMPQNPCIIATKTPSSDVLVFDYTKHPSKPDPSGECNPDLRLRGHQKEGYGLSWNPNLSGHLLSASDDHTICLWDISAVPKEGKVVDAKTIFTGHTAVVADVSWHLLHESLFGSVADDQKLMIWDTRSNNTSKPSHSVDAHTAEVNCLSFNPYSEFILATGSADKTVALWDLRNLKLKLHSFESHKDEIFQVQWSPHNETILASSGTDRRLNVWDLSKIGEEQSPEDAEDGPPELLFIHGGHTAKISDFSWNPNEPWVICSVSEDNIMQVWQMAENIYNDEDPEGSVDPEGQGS", "assay": "ITC; AEBP2_(379–390) peptide titrated into RBBP4; one-site binding model, Origin 7"}, "[3]": {"molecular_target": "T3, RBBP4 Glu126Ala/Asn128Ala/Glu179Ala (UniProt Q09028 1-425, Glu126Ala | Asn128Ala | Glu179Ala)", "T3 construct": "RBBP4 with the mutations Glu126Ala/Asn128Ala/Glu179Ala; parent is the wild-type RBBP4 of m1; also called RBBP4 E126A/N128A/E179A", "T3 sequence (Q09028 whole entry E126A/N128A/E179A)": "as the sequence (Q09028 whole entry E231A) above, with E126A, N128A, E179A, A231E counted along it", "assay": "ITC; AEBP2_(379–390) peptide titrated into RBBP4; one-site binding model, Origin 7"}},
  "data": [
    {"binder": "B1", "values": [
      {"measurement": "binding result", "setting": "[1]", "result": "binds"}
    ]},
    {"binder": "B2", "values": [
      {"measurement": "fold reduction of binding affinity against the wild-type peptide", "setting": "[2]", "result": "~20", "unit": "fold"}
    ]},
    {"binder": "B3", "values": [
      {"measurement": "Kd", "setting": "[2]", "result": "7.6 ± 0.6", "unit": "µM"},
      {"measurement": "dH", "setting": "[2]", "result": "-15.9 ± 0.395", "unit": "kcal/mol"},
      {"measurement": "fold reduction of binding affinity against wild-type RBBP4", "setting": "RBBP4 Glu231Ala", "result": 5, "unit": "fold"},
      {"measurement": "fold reduction of binding affinity against wild-type RBBP4", "setting": "[3]", "result": 7, "unit": "fold"}
    ]}
  ]
}
